# B1: 23mer duplex with 2-nt bubble (dsDNA)
# DNA 1: CGAACGATCATTACTAGCTCCAA
# DNA 2: TTGGAGCTAGTCCTGATCGTTCG
# B2: 50 bp dsDNA (EMSA) (dsDNA)
# DNA 1: CCTCGAGGGATCCGTCCTAGCAAGCCGCTGCTACCGGAAGCTTCTGGACC
# DNA 2: GGTCCAGAAGCTTCCGGTAGCAGCGGCTTGCTAGGACGGATCCCTCGAGG
# Experiments:
# [1] = target: T1, hSSB2-OB (NABP1 OB domain) (human, UniProt Q96AH0 1-132); assay: SPR competition; competes with immobilised biotinylated wild-type ssDNA; 2 mM MgCl2; SPR: 20 mM Tris pH 7.0, 50 mM NaCl, 2 mM MgCl2, 0.01% P20, 2 mM DTT; EMSA: 20 mM Tris pH 7.5, 100 mM NaCl, 1 mM DTT, 100 µg/mL BSA, 37 °C; agarose shift: 10 mM; settings: protein: recombinant; tags: GST tag (pGEX-6P) removed by HRV3C protease; blunt, central 2-nt mismatch (TT opposite CC; S3 positions 11-12)
# T1 sequence (Q96AH0 1-132): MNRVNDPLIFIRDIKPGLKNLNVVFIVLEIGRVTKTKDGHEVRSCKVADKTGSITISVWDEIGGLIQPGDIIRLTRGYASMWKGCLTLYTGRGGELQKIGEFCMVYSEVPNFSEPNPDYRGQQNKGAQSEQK
# [2] = target: T1, hSSB2-OB (NABP1 OB domain); assay: SPR competition; competes with immobilised biotinylated wild-type ssDNA; value only in figure; 2 mM MgCl2; SPR: 20 mM Tris pH 7.0, 50 mM NaCl, 2 mM MgCl2, 0.01% P20, 2 mM DTT; EMSA: 20 mM Tris pH 7.5, 100 mM NaCl, 1 mM DTT, 100 µg/mL BSA, 37 °C; agarose shift: 10 mM; settings: protein: recombinant; tags: GST tag (pGEX-6P) removed by HRV3C protease; single strand
# [3] = target: T1, hSSB2-OB (NABP1 OB domain); assay: EMSA; SPR: 20 mM Tris pH 7.0, 50 mM NaCl, 2 mM MgCl2, 0.01% P20, 2 mM DTT; EMSA: 20 mM Tris pH 7.5, 100 mM NaCl, 1 mM DTT, 100 µg/mL BSA, 37 °C; agarose shift: 10 mM; settings: protein: recombinant, tags: GST tag (pGEX-6P) removed by HRV3C protease, label: 32P
# [4] = target: T1, hSSB2-OB (NABP1 OB domain); assay: SPR competition; almost same affinity as undamaged GATTGC; value only in figure; 2 mM MgCl2; SPR: 20 mM Tris pH 7.0, 50 mM NaCl, 2 mM MgCl2, 0.01% P20, 2 mM DTT; EMSA: 20 mM Tris pH 7.5, 100 mM NaCl, 1 mM DTT, 100 µg/mL BSA, 37 °C; agarose shift: 10 mM; settings: protein: recombinant; tags: GST tag (pGEX-6P) removed by HRV3C protease; single strand
binder,measurement,setting,value
B1,Ki,[1],1000 nM
GATTGC (ssDNA) [6mer GATTGC wild-type],binding result,[2],binds
CCTCGAGGGATCCGTCCTAGCAAGCCGCTGCTACCGGAAGCTTCTGGACC (ssDNA) [50mer ssDNA (EMSA)],binding result,[3]; single strand,binds
B2,binding result,[3]; blunt,no binding
"GATTGC (ssDNA, cyclobutane pyrimidine dimer between T3 and T4) [6mer GATTGC with CPD]",binding result,[4],binds

# Source: PMC8511049, “hSSB2 (NABP1) is required for the recruitment of RPA during the cellular response to DNA UV damage”
